Experimental findings from patent US11433139B2, “Peptide vaccines against interleukin-31” (Zoetis Services LLC, priority 2018, dated 2022) are described below.

Test [1] deals with canine IL-31. Kind of test: Biacore binding, single test concentration of antibody, canine IL-31 surface. The method, then:
(§1) For the indirect ELISA, binding (ELISA OD) to wildtype feline IL-31 and a feline IL-31 15H05 mutant which had mutations in the monoclonal antibody 15H05 epitope region was assessed. To confirm binding, biacore analysis was performed using canine, feline, equine, human, the feline 15H05 mutant, and feline 11E12 mutant IL-31 proteins as surfaces and a single test concentration of antibody. The feline IL-31 11E12 mutant had mutations in the monoclonal antibody 11E12 epitope region.
(§2) For the indirect ELISA method, antibody binding to wildtype and feline IL-31 15H05 mutant proteins was assessed. […] In comparison, the 11E12 antibody bound to the wild-type feline IL-31 and its binding was not impacted by the mutations in the 15H05 epitope region as evidenced by the data in FIG. 4. To confirm binding, biacore analysis was performed using canine, feline, equine, human, feline 15H05 mutant, and feline 11E12 mutant IL-31 proteins as surfaces and a single test concentration of antibody. Similar to ELISA observations, all antibodies tested bound to wildtype feline IL-31. In agreement with the data described above in this section, mouse antibodies 11 E12 and 15H05 both bound to canine and feline IL-31 surfaces. […] From this group of nine fully canine antibodies, only ZIL1 and ZIL9 cross-reacted with equine IL-31. Of note, antibody 15H05 was the only one of all assayed herein that bound to canine, feline, and equine IL-31 indicating some level of epitope conservation across the three species. In contrast, none of the antibodies described herein bound to human IL-31. Additional biacore surfaces were used to verify ELISA observations showing differential binding of antibodies to wildtype feline IL-31 and two proteins with mutations in the 15H05 (15H05 mutant) or 11 E12 (11E12 mutant) epitopes. […] Differing results can be attributed to differences in the two assay methodologies.
A general note: In SPR one partner is held on a chip, and binding of the other changes the refractive index at the surface.

The test system of test [2] is wildtype feline IL-31. As to the kind of experiment: Indirect ELISA, binding to wildtype feline IL-31. The protocol:
(§3) Mice and dogs were immunized with recombinant canine IL-31 (SEQ ID No. 155) for the purpose of identifying antibodies. Serum antibody titers from immunized animals were determined using an enzyme linked immunosorbent assay (ELISA). Canine or feline IL-31 (50 ng/well) was immobilized to polystyrene microplates and used as a capture antigen. Serum from immunized animals was diluted in phosphate buffered saline with 0.05% tween-20 (PBST). The presence of anti-IL-31 antibodies was detected with an appropriate secondary HRP labeled antibody. Following addition of a chromogenic substrate (SureBlue Reserve TMB 1-Component Microwell Peroxidase Substrate, KPL, Inc., Gaithersburg, Md.) and a ten minute incubation at room temperature (RT) the reaction was stopped with the addition of […] of 0.1 N HCl. The absorbance of each well was determined at an optical density (OD) of 450 nm. Antibodies were selected for their ability to bind canine and feline IL-31 using an ELISA. In some cases, further characterization was performed at the time of selection using an ELISA with a mutant form of the feline IL-31 protein as a capture antigen. Cells producing antibodies with desired binding and inhibitory properties were chosen for sequence analysis of RNA transcripts representing the variable heavy (VH) and variable light (VL) IgG chains.
as §2
(§4) To determine the impact of mAbs 11E12 and 15H05 ability to bind these mutant forms of feline IL-31, an indirect ELISA was run using the mutants directly coated on to an immunoassay plate. […] The minor attenuation of mAb 15H05s binding to the 11E12 mutant is likely due to translational effects of the mutations from movement of the two front helices effecting the 15H05 binding site. The mutations designed to affect mAb 15H05s binding (mutant 15H05) show a complete loss of mAb 1505s ability to bind this IL-31 mutant by ELISA. Unlike the 11E12 mutant, the changes in the random coil recognized by mAb 15H05 (mutant 15H05) had no impact on mAb 11E12 binding further supporting the distinction between the two epitopes (FIG. 6C).
For orientation: ELISA stands for enzyme-linked immunosorbent assay.

Test [3] deals with feline IL-31 15H05 mutant. Kind of test: Indirect ELISA, binding to feline IL-31 15H05 mutant. As to conditions: compared with wildtype. The method, then: as §3, §2, §4
Test [4] relates to feline 15H05 mutant IL-31. Kind of test: Biacore binding, single test concentration of antibody, feline 15H05 mutant IL-31 surface. The protocol:
as §1, §2

Test [5] deals with feline 11E12 mutant IL-31. As to the kind of experiment: Biacore binding, single test concentration of antibody, feline 11E12 mutant IL-31 surface. The protocol:
as §1, §2

Test [6] has as its system feline IL-31. Kind of test: IL-31 induced pruritus model in cats, antibody pre-bound to feline IL-31. It counts as in vivo, cat. As to conditions: 0.5 mg/kg antibody pre-bound with 0.5 μg/kg feline IL-31, days 0, 7, 21. The method, then: To test the preliminary efficacy of mouse: feline 11E12 chimera, mouse: feline 15H05 chimera, and felinized 11 E12 (Feline 11E12 1.1), an IL-31 induced pruritus model in cats was developed. Following an intravenous dose of 0.5 μg/kg feline IL-31 (SEQ ID NO: 159; Feline_IL-31_E_coli), the corresponding nucleotide sequence for which is (SEQ ID NO: 160; Feline_IL-31_E_coli), cats will portray transient pruritic behavior that includes (but is not limited to) licking, chewing, scratching, and head or body shaking. Rubbing up against the cage was not considered a pruritic activity. Pruritic observations take place by a trained investigator for 30 minutes prior to administration of the IL-31 protein and for 1 hour following. For this study, a baseline challenge with feline IL-31 was performed up to 1 month prior to dosing with antibody. On day zero, a 0.5 mg/kg antibody dose was combined with 0.5 μg/kg of feline IL-31 at room temperature for 60 minutes prior to injecting the pre-bound complex into each animal. A “no mAb” control was included for a control. The dose of mAb represents a gross molar excess of antibody to cytokine. Pruritic activity was monitored as described on days 0, 7, and 21.
Target sequence in this assay (as listed by the source): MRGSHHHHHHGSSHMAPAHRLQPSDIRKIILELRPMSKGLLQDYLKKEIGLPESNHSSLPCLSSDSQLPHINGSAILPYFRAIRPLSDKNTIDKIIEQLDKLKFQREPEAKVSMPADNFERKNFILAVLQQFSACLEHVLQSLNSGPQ

The target in test [7] is canine IL-31. Kind of test: Affinity of anti-IL-31 antibodies by surface plasmon resonance (Biacore), canine IL-31 surface. As to conditions: IL-31 conjugated to the surface (FIG. 2). It counts as binding. The protocol: (§5) The affinity with which candidate mAbs bind canine and feline IL-31 was determined using surface plasmon resonance (SPR) on a Biacore system (Biocore Life Sciences (GE Healthcare), Uppsala, Sweden). To avoid affinity differences associated with differential surface preparation that can occur when immobilizing antibodies to surfaces; a strategy was employed where IL-31 was directly conjugated to the surface. Immobilization was obtained by amine coupling 5 μg/mL IL-31 using N-hydroxysuccinimide (NHS)/1-Ethyl-3-(3-dimethylaminopropyl) carbodiimide (EDC) chemistry. Chips were quenched with ethanolamine and the affinity with which all candidate mAbs bound to the immobilized IL-31 was evaluated. All curves were fit to a 1:1 model. Affinity constants (KD) less than 1×10^−11M (1E-11 M) are below the lower limit of quantitation of detection for the instrument. Results for affinity measurements are described herein.

For test [8], the target named is feline IL-31. As to the kind of experiment: Affinity of anti-IL-31 antibodies by surface plasmon resonance (Biacore), feline IL-31 surface. It counts as binding. As to conditions: IL-31 conjugated to the surface (FIG. 2). The protocol: as §5
Target sequence in this assay (as listed by the source): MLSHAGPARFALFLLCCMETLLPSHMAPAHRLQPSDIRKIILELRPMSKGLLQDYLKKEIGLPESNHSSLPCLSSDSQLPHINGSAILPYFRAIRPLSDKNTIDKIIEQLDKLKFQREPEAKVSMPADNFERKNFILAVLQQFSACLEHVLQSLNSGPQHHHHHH

Changes are numbered by the printed parent chain.

canine IL-31, sequence (as listed by the source): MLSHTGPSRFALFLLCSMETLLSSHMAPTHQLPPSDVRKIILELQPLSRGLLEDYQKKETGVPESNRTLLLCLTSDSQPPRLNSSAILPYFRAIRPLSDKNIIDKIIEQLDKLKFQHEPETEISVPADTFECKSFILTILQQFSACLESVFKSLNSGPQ
feline IL-31 15H05 mutant, sequence (as listed by the source, change not shown): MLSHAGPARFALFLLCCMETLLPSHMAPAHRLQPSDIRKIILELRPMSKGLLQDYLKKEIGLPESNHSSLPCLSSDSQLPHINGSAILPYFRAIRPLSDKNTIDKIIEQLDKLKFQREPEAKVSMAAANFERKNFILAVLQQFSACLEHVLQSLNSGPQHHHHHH
feline 11E12 mutant IL-31, sequence (as listed by the source, change not shown): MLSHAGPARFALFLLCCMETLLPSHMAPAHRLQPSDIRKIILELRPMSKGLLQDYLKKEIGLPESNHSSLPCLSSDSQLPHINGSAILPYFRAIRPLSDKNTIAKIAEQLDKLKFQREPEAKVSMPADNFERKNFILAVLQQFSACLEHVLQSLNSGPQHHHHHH

B1: ZIL94: fully canine anti IL-31 antibody, VH SEQ ID NO: 95, VL SEQ ID NO: 97 (antibody, listed as Canis familiaris, V domains shown)
VH: EVQLVDSGGDLVKPGGSLRLSCVASGFTFSTYFMSWVRQAPGRGLQWVALISSDGSGTYYADAVKGRFTISRDNAKNTLYLQMNSLRAEDTAMYYCAIFWRAFNDWGQGTLVTVSS
VL: QTVVIQEPSLSVSPGGTVTLTCGLNSGSVSTSNYPGWYQQTRGRTPRTIIYDTGSRPSGVPNRFSGSISGNKAALTITGAQPEDEADYYCSLYTDSDILVFGGGTHLTVL
Turning to B1, in test [1], the “binding to canine IL-31 (Biacore)” value is given as “dual binding property”. In test [2], the “binding to wildtype feline IL-31 (ELISA)” value is “capable of binding”. Moreover, the “binding to feline IL-31 15H05 mutant (ELISA)” value in test [3] is listed as “binding was impacted”.

B2: ZIL69: fully canine anti IL-31 antibody, VH SEQ ID NO: 91, VL SEQ ID NO: 93 (antibody, listed as Canis familiaris, V domains shown)
VH: EVQLVESGGDLVKPAGSLRLSCVASGFTFSSYAMKWVRQAPGKGLQWVATINNDGTRTGYADAVRGRFTISKDNAKNTLYLQMDSLRADDTAVYYCTKGNAESGCTGDHCPPYWGQGTLVTVSS
VL: SSVLTQPPSVSVSLGQTATISCSGESLNKYYAQWFQQKAGQAPVLVIYKDTERPSGIPDRFSGSSAGNTHTLTISGARAEDEADYYCESAVSSETNVFGSGTQLTVL
Take B2: the “binding to canine IL-31 (Biacore)” value in test [1] is given as “partial canine binding”. The “binding to wildtype feline IL-31 (ELISA)” value in test [2] is “capable of binding”. In addition, the “binding to feline IL-31 15H05 mutant (ELISA)” value in test [3] is listed as “binding was impacted”.

B3: ZIL171: fully canine anti IL-31 antibody, VH SEQ ID NO: 107, VL SEQ ID NO: 109 (antibody, listed as Canis familiaris, V domains shown)
VH: EVQLVESGGDLVKPAGSLRLSCVASGFTFRTYVMNWVRQAPGKGLQWVASINGGGSSPTYADAVRGRFTVSRDNAQNSLFLQMNSLRAEDTAIYFCVVSMVGPFDYWGHGTLVTVSS
VL: B2 VL with E25K, N28S, K29Y, A66S, E94D, N96I, S100G, Q103H
Regarding B3, the “binding to feline 15H05 mutant IL-31 (Biacore)” value in test [4] is recorded as “partially affected”. Besides, in test [2], the “binding to wildtype feline IL-31 (ELISA)” value is listed as “capable of binding”. Further, the “binding to feline IL-31 15H05 mutant (ELISA)” value in test [3] is reported as “binding was impacted”.

B4: ZIL159: fully canine anti IL-31 antibody, VH SEQ ID NO: 103, VL SEQ ID NO: 105 (antibody, listed as Canis familiaris, V domains shown)
VH: EVQLVESGGDLVKPAGSLRLSCVASGFTFSSYVMTWVRQAPGKGLQWVAGINSEGSRTAYADAVKGRFTISRDNAKNTLYLQIDSLRAEDTAIYYCATGDIVATGTSYWGQGTLVTVSS
VL: SNVLTQPPSVSVSLGQTATISCSGETLNRFYTQWFQQKAGQAPVLVIYKDTERPSGIPDRFSGSSSGNIHTLTISGARAEDEAAYYCKSAVSIDVGVFGGGTHLTVF
For the molecule B4, the “binding to canine IL-31 (Biacore)” value in test [1] is listed as “dual binding property”. Moreover, in test [2], the “binding to wildtype feline IL-31 (ELISA)” value was “capable of binding”. For the same molecule, in test [3], the “binding to feline IL-31 15H05 mutant (ELISA)” value was “binding was impacted”. The “binding to feline 11E12 mutant IL-31 (Biacore)” value in test [5] is on record as “impacted”.

B5: mouse: feline 11E12 chimera: mouse 11E12 variable regions on feline IgG constant regions (antibody)
heavy: QVQLQQSGAELVKPGASVKLSCKASGYTFKYYDINWVRQRPEQGLEWIGWIFPGDGGTKYNETFKGKATLTTDKSSSTAYMQLSRLTSEDSAVYFCARGGTSVIRDAMDYWGQGTSVTVSSASTTAPSVFPLAPSCGTTSGATVALACLVLGYFPEPVTVSWNSGALTSGVHTFPAVLQASGLYSLSSMVTVPSSRWLSDTFTCNVAHPPSNTKVDKTVRKTDHPPGPKPCDCPKCPPPEAAGAPSIFIFPPKPKDTLSISRTPEVTCLVVDLGPDDSDVQITWFVDNTQVYTAKTSPREEQFNSTYRVVSVLPILHQDWLKGKEFKCKVNSKSLPSPIERTISKAKGQPHEPQVYVLPPAQEELSRNKVSVTCLIKSFHPPDIAVEWEITGQPEPENNYRTTPPQLDSDGTYFVYSKLSVDRSHWQRGNTYTCSVSHEALHSHHTQKSLTQSPGK
light: DIVLTQSPASLAVSLGQRATISCRASESVDNYGISFMHWYQQKPGQPPKLLIYRASNLESGIPARFSGSGSRTDFTLTINPVETDDVATYYCQQSNKDPLTFGAGTKLELKRSDAQPSVFLFQPSLDELHTGSASIVCILNDFYPKEVNVKWKVDGVVQNKGIQESTTEQNSKDSTYSLSSTLTMSSTEYQSHEKFSCEVTHKSLASTLVKSFQRSECQRE
Consider B5, for which the “pruritus scores compared to placebo control” value in test [6] is on record as “did not achieve a significant reduction in pruritus at any timepoint”. Besides, in test [7], the “affinity (KD) to canine IL-31” value was “slightly superior”. In test [8], the “affinity (KD) to feline IL-31” value is “slightly superior”.

B6: ZIL8: fully canine anti IL-31 antibody, VH SEQ ID NO: 79, VL SEQ ID NO: 81 (antibody, listed as Canis familiaris, V domains shown)
VH: EVQLVESGGDLVKPAGSLRLSCVASGFTFSDYAMSWVRQAPGRGLQWVAGIDSVGSGTSYADAVKGRFTISRDDAKNTLYLQMFNLRAEDTAIYYCASGFPGSFEHWGQGTLVTVSS
VL: QSVLTQPASVSGSLGQKVTISCTGSSSNIGSGYVGWYQQLPGTGPRTLIYYNSDRPSGVPDRFSGSRSGTTATLTISGLQAEDEADYYCSVYDRTFNAVFGGGT
Turning to B6, the “binding to wildtype feline IL-31 (ELISA)” value in test [2] is reported as “capable of binding”. Moreover, in test [3], the “binding to feline IL-31 15H05 mutant (ELISA)” value was “binding was impacted”. Moreover, the “binding to feline 11E12 mutant IL-31 (Biacore)” value in test [5] was “impacted”.
